The results in this text go back to article PMC2683827.

This test concerns the target paclitaxel stabilized microtubules (UniProt P02550). The test is described as follows: co-sedimentation; tau 0-10 μM mixed with paclitaxel stabilized microtubules (1.6 μM tubulin dimers, 20 μM paclitaxel) in 80 mM PIPES pH 7.0, 2 mM MgCl2, 0.5 mM EGTA; 30 min at room temperature; 100,000 x g for 5 min at 23°C; tau in the pellet measured by gel densitometry or western blot; noncooperative single-site fit; unphosphorylated and GSK-3β phosphorylated tau.
Chain of UniProt P02550 (P02550 whole entry, looked up): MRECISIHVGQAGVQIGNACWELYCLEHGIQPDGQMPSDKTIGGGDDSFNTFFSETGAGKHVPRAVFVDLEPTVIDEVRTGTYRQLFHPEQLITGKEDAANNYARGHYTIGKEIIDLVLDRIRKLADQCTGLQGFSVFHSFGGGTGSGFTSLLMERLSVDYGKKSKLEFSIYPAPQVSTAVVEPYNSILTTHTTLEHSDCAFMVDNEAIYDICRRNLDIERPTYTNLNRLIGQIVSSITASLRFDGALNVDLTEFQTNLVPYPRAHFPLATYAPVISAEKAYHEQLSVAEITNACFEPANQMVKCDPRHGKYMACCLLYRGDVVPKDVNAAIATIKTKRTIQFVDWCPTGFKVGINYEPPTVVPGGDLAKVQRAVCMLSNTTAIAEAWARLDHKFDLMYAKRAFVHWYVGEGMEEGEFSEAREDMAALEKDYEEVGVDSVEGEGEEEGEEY

Substance “GSK-3β phosphorylated tau isoform 1N3R (from UniProt P10636-4 1-381) (natural protein)” returned a fold decrease in microtubule affinity upon GSK-3β phosphorylation, against the unphosphorylated isoform of 3 fold.

The substance “GSK-3β phosphorylated tau isoform 1N4R (from UniProt P10636-7 1-412) (natural protein)” gave a fold decrease in microtubule affinity upon GSK-3β phosphorylation, against the unphosphorylated isoform of 3 fold.
